# According to US20130122000A1 (TRELLIS BIOSCIENCE, published 2013):
# B1: 1G4 mAb (antibody, V domains shown)
# VH: GASVKMSCKASGYTFTDYVISWVKQRTGQGLEWIGEIYPGSGRYYHNEKFKGKATLTADKSSNTAYIQLSSLTSEDSAVYFCTRSLQRLRYFDVWGAGTTVTVSS
# VL: QSPATLSVTPGDRVSLSCRASQSISDYLHWYQQKSHESPRLLIKYGSQSISGIPSRFSGSGSGTDFTLSISSVETEDFGMYFCQQSNSWPLTFGAGTKLELKR
# notes: Murine monoclonal antibody from a hybridoma; also called IG4; antibody 1G4
# B2: heregulin (ligand, UniProt Q02297-6 177-241, looked up)
# chain: SHLVKCAEKEKTFCVNGGECFMVKDLSNPSRYLCKCPNEFTGDRCQNYVMASFYKHLGIEFMEAE
# notes: also called HRG
# Assays:
# [1] = target: T1, HER3:heregulin complex (UniProt P21860 20-643; Q02297 177-241, limits assumed); assay: FortéBio biosensor (BLI), HER3 ECD on amine surface loaded with heregulin at 10 ug/ml, antibody from 67 nM, 3-fold series; average (Stdev 113)
# T1 construct: Non-covalent receptor-ligand complex, formed on the biosensor by adding heregulin to immobilised HER3 ECD; also called heregulin active complex with HER3; complex of HER3 ECD with heregulin
# T1 sequence (P21860 20-643 limits assumed, one chain of several): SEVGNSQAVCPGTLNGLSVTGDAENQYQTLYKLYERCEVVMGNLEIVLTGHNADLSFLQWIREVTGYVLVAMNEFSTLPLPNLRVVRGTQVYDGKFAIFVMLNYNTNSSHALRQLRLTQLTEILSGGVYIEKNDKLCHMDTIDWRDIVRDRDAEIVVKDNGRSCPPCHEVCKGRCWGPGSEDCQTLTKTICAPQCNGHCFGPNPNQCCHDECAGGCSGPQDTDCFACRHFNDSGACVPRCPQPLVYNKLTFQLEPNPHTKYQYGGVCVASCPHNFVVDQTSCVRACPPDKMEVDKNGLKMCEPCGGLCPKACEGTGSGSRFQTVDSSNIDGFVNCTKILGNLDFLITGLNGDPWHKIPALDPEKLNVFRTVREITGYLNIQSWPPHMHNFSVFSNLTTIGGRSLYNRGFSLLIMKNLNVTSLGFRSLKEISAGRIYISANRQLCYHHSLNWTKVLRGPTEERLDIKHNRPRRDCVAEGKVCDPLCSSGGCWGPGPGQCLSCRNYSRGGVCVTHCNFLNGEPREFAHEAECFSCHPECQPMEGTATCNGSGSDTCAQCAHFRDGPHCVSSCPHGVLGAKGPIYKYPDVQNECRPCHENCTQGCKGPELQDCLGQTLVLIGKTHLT
# Method: The binding assay was repeated for two of the antibodies, 1G4 and 14B10 using the same FortéBio® method. HER3 ECD at 10-15 μg/ml was again captured onto the amine surface in the same buffer. Heregulin at 10 μg/ml was added to form the HER3:heregulin complex on the surface and the antibodies tested at 67 nM once again using three-fold dilution series and the data were fitted to determine binding constants.
# [2] = target: T2, HER3 extracellular domain (ECD) (UniProt P21860 20-643); assay: FortéBio biosensor (BLI), HER3 ECD on amine-reactive surface, antibody in solution from 67 nM, 3-fold series; average (Stdev 2,660)
# T2 construct: extracellular domain; Coupled to an amine-reactive biosensor surface at 10-15 ug/ml; also called HER3 ECD; ErbB3
# T2 sequence (P21860 20-643 limits assumed): as the sequence (P21860 20-643 limits assumed, one chain of several) above
# Method: Of these, six of these murine antibodies were assayed quantitatively for their binding affinities to HER3 ECD according to the commercially available FortéBio® method. In this method, ECD at 10-15 μg/ml was captured onto an amine-reactive surface in 10 mM MES, pH 6.0 at 25° C. Binding capacity is tested by treating the surface with unlabeled antibody. As unlabeled antibody accumulates on the surface, the optical characteristics of the surface are changed, thus allowing measurement of mass accumulation without requiring labeling. This is a modification of the Biacore™ style analysis. The antibodies were tested at 67 nM as the highest concentration and diluted in a three-fold dilution series. Response data for the various concentrations were individually and globally fitted to determine the binding affinities.
# [3] = target: HER3 on tumor cells (MCF-7, MB468) (UniProt P21860 20-1342, limits assumed); assay: cell-based or functional assay
# HER3 on tumor cells (MCF-7, MB468), sequence (P21860 20-1342 limits assumed): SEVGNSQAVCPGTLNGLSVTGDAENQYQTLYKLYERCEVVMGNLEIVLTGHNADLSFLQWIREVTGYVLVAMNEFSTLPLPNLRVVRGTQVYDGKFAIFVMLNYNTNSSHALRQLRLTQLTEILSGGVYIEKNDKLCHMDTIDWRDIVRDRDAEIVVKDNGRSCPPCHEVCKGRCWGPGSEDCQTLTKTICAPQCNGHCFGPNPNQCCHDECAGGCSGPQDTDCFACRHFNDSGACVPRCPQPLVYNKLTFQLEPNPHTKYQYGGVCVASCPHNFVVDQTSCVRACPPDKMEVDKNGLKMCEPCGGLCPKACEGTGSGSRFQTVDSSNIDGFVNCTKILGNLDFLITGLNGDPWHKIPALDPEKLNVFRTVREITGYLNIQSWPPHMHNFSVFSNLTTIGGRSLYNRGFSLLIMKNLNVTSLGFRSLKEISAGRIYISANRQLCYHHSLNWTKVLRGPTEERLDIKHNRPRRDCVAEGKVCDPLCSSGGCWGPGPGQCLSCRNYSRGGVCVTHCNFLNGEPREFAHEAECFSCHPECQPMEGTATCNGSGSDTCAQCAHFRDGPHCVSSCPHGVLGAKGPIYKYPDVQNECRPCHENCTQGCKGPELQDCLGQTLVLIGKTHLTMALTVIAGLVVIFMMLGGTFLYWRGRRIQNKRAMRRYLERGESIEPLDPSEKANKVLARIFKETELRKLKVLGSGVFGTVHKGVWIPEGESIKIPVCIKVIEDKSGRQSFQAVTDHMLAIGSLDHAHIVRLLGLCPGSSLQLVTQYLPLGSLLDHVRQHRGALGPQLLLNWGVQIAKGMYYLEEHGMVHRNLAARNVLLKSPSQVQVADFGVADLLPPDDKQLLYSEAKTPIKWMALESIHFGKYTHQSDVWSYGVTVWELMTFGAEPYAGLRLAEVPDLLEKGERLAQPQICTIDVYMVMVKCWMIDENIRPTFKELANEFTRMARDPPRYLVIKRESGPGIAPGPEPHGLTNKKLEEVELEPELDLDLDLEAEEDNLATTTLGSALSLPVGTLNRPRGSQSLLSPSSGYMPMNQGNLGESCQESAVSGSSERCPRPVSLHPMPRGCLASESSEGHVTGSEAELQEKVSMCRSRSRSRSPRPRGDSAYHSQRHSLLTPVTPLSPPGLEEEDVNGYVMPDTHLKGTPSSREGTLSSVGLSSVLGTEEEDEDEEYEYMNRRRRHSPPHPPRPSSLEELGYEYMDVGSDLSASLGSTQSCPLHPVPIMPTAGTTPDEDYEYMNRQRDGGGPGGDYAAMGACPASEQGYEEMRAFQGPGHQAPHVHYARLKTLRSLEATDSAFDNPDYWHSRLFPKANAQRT
# [4] = target: T2, HER3 extracellular domain (ECD); assay: FortéBio biosensor (BLI), HER3 ECD on amine-reactive surface; average (Stdev 111,000)
Binder,Kd [1] [nM],Kd [2] [nM],"IC50, inhibition of HER3 tyrosine phosphorylation in MCF-7 cells stimulated with heregulin [3] [ng/mL]",Kd [4] [nM]
B1,0.327,2.81,~10,
B2,,,,165
